Test results reported in paper PMC11122373, “Structure-Based De Novo Design for the Discovery of Miniprotein Inhibitors Targeting Oncogenic Mutant BRAF” (International Journal of Molecular Sciences, 2024).

B1: miniprotein 63 (designed binder)
chain: SIVGQGAQQMLVSKIKCTVANEWLDRSMLTSKFAMFVLLNEIDMLDIMLEAMGISLLEDREHQTRRVNY
notes: de novo designed miniprotein of three helices and 69 amino acids; scaffold from residues 164-232 of 14-3-3, all 69 residues allowed to mutate; Cloned into pMAL-c5x (NdeI, EcoRI) with C-terminal Myc tag; source: E. coli BL21(DE3), purified (MBPTrap HP column); not shown: MBP, N-terminal, kept; Myc, C-terminal, kept
B2: miniprotein 76 (designed binder)
chain: SIQGQGARQCLVSKLKCTVANEWLDRWMLTSKFAMFVLLNEIDMLDIMLEAMGISIEEDREHQTRRVNY
notes: as for B1
B3: miniprotein 94 (designed binder)
chain: PCVWTGFREFKGGQRGKERLAMCEDLMCEADWWGGNQNRDRGSIFTRVKGSGALGKISIAERGARNNAV
notes: de novo designed miniprotein of three helices and 69 amino acids; scaffold from residues 164-232 of 14-3-3, all 69 residues allowed to mutate; Cloned into pMAL-c5x with C-terminal Myc tag; source: E. coli BL21(DE3), purified (MBPTrap HP column); not shown: MBP, N-terminal, kept; Myc, C-terminal, kept

Target: T1, V600E mutant BRAF^15mut (BRAF kinase domain with 15 solubilizing mutations and V600E) (UniProt P15056 444-723, I543A | I544S | I551K | Q562R | L588N | K630S | Y673S | A688R | L706S | Q709R | …)
T1 construct: BRAF kinase domain, residues 444-723 of UniProt P15056, with 15 solubilizing mutations (Phe667 kept intact) and V600E; Cloned into pET-32a (NdeI, XhoI) with N-terminal MBP; also called VRAF murine sarcoma viral oncogene homologue B1 kinase domain; source: E. coli BL21(DE3), purified (MBPTrap HP column)
T1 sequence (P15056 other isoform, or with tags, fused parts or gaps with the stated changes): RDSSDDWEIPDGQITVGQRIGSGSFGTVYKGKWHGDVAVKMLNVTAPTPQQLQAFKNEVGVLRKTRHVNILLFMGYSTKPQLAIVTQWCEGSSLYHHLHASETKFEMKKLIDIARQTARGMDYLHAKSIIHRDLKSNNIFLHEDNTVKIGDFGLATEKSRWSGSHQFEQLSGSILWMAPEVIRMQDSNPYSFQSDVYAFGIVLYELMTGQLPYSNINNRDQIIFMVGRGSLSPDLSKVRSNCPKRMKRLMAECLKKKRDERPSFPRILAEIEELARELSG
Assay: ELISA; 10 ug/mL V600E mutant BRAF^15mut coated in a 96-well plate; blocked with 5% skim milk in 20 mM Tris-HCl pH 7.5, 150 mM NaCl; purified Myc-tagged proteins (MEK1, MBP, miniproteins) added at 0, 200 and 2000 nM; detected with anti-c-Myc antibody and HRP-conjugated anti-mouse IgG, TMB, absorbance at 450 nm; triplicate
Conditions: both partners purified

Binder	binding result
B1	binds
B2	binds
B3	binds
